Experimental data: patent US20240150433A1, “ERT2 MUTANTS AND USES THEREOF” (Senti Biosciences, Inc., priority 2021, published 2024)

Key:
[1] = following a typical clinical dose of tamoxifen; cited from earlier work
[2] = tested on: U87MG:1066 cells; experiment: ERT2 mutant validation in U87MG with mCherry reporter; assay type: cell-based; settings: validation screen versus wild-type ERT2
Description: About 16 hours before transduction 100k U87MG:1066 cells were seeded into 16 wells in 12 well plate format. During transduction, cells in each well were transduced with 100k pg of virus of ERT2 variant constructs. After transduction, cells were split in to 50k cells per well in a 24 well plate format, and treated with drug-free media or a range of endoxifen or 4-OHT drug conditions. About two days after treatment of cells with endoxifen or 4-OHT, cells were collected and mCherry reporter expression was quantified by flow cytometry.
Screening of the ERT2 mutant library identified a subset of ERT2 variants that were sensitive to endoxifen at 1 nM. Among this subset, 15 variants (Table 19) were validated in U87MG cells for their ability to activate an mCherry reporter (SB01066; FIG. 14B) at a range of concentrations of 0 pM, 10 pM, 50 pM, 100 pM, and 1 nM of endoxifen (FIG. 15A) and 4-OHT (FIG. 15B). Expression of mCherry was quantified about 24 hours after treatment with endoxifen or 4-OHT.
Select ERT2 variants (Table 20) from the previous screens were further tested for sensitivity to endoxifen and 4-OHT, compared to wild-type ERT2. […] Fold activation was calculated by gMFI mCherry levels of each test condition divided by gMFI mCherry levels of U87MG cells transduced with the reporter (SB01066).

[3] = tested on: NK cells; experiment: Validation of ERT2 mutants with mCherry reporter in NK cells; assay type: cell-based; settings: primary NK cells, mCherry by flow cytometry
Description: After 10 days of feeder cell activation, NK cells were co-transduced with ERT2 mutant virus and reporter SB01066 virus (Experimental Set-up 1). On Day 2 after transduction, transduced NK cells were treated with endoxifen or 4-OHT at a range of concentrations of 0 nM, 0.01 nM, 0.1 nM, 1 nM, and 10 nM. On Day 4, cells were checked for mCherry expression by flow cytometry.

| Molecule | average peak plasma concentration [1] | 4-OHT concentration at which mCherry expression is activated [2] | endoxifen concentration at which mCherry expression is activated [2] | 4-OHT concentration at which variant was sensitive [3] | endoxifen concentration at which variant was sensitive [3] |
| --- | --- | --- | --- | --- | --- |
| CC/C(=C(\c1ccccc1)c1ccc(OCCN(C)C)cc1)c1ccccc1 [tamoxifen] | approximately 40 ng/mL | – | – | – | – |
| wild-type ERT2: ER-LBD with G400V/M543A/L544A/V595A (SEQ ID NO: 3), benchmark construct ZF10-1_p65_ERT2 wild-type (protein) SAGDMRAANLWPSPLMIKRSKKNSLALSLTADQMVSALLDAEPPILYSEYDPTRPFSEASMMGLLTNLADRELVHMINWAKRVPGFVDLTLHDQVHLLECAWLEILMIGLVWRSMEHPVKLLFAPNLLLDRNQGKCVEGMVEIFDMLLATSSRFRMMNLQGEEFVCLKSIILLNSGVYTFLSSTLKSLEEKDHIHRVLDKITDTLIHLMAKAGLTLQQQHQRLAQLLLILSHIRHMSNKGMEHLYSMKCKNVVPLYDLLLEAADAHRLHAPTSRGGASVEETDQSHLATAGSTSSHSLQKYYITGEAEGFPATA | – | about 25 nM | about 25 nM | – | – |
| SB06136: ZF10-1_p65_ERT2 variant L384M/L391V/N413D/M421L/S463P/H524L (protein) SAGDMRAANLWPSPLMIKRSKKNSLALSLTADQMVSALLDAEPPILYSEYDPTRPFSEASMMGLLTNLADRELVHMINWAKRVPGFVDLTLHDQVHLLECAWMEILMIGVVWRSMEHPVKLLFAPNLLLDRDQGKCVEGLVEIFDMLLATSSRFRMMNLQGEEFVCLKSIILLNSGVYTFLPSTLKSLEEKDHIHRVLDKITDTLIHLMAKAGLTLQQQHQRLAQLLLILSHIRHMSNKGMELLYSMKCKNVVPLYDLLLEAADAHRLHAPTSRGGASVEETDQSHLATAGSTSSHSLQKYYITGEAEGFPATA | – | – | – | 0.1 nM | 0.1 nM |
| SB06145: ZF10-1_p65_ERT2 variant L409V/N413D/Q414E/M421L/S463P/H524L (protein) SAGDMRAANLWPSPLMIKRSKKNSLALSLTADQMVSALLDAEPPILYSEYDPTRPFSEASMMGLLTNLADRELVHMINWAKRVPGFVDLTLHDQVHLLECAWLEILMIGLVWRSMEHPVKLLFAPNLVLDRDEGKCVEGLVEIFDMLLATSSRFRMMNLQGEEFVCLKSIILLNSGVYTFLPSTLKSLEEKDHIHRVLDKITDTLIHLMAKAGLTLQQQHQRLAQLLLILSHIRHMSNKGMELLYSMKCKNVVPLYDLLLEAADAHRLHAPTSRGGASVEETDQSHLATAGSTSSHSLQKYYITGEAEGFPATA | – | – | – | 0.1 nM | 0.1 nM |
| SB06142: ZF10-1_p65_ERT2 variant L354I/L391V/N413D/M421L/S463P/M517A/H524L (protein) SAGDMRAANLWPSPLMIKRSKKNSLALSLTADQMVSALLDAEPPILYSEYDPTRPFSEASMMGLLTNLADREIVHMINWAKRVPGFVDLTLHDQVHLLECAWLEILMIGVVWRSMEHPVKLLFAPNLLLDRDQGKCVEGLVEIFDMLLATSSRFRMMNLQGEEFVCLKSIILLNSGVYTFLPSTLKSLEEKDHIHRVLDKITDTLIHLMAKAGLTLQQQHQRLAQLLLILSHIRHASNKGMELLYSMKCKNVVPLYDLLLEAADAHRLHAPTSRGGASVEETDQSHLATAGSTSSHSLQKYYITGEAEGFPATA | – | – | – | 0.1 nM | 0.1 nM |
